Data published in patent US20060142192A1 (ZymoGenetics, published 2006).
Values belong to the binder of their own block, whether it stands above or below them.

What was measured:
human ZcytoR21x1 [1] = target: T1, human ZcytoR21x1 (human, UniProt Q8NFR9 24-667); test: flow cytometry, biotinylated ligand + streptavidin-PE on stably transfected BHK cells
T1 construct: also called hcytor21x1; IL-17RE
T1 sequence: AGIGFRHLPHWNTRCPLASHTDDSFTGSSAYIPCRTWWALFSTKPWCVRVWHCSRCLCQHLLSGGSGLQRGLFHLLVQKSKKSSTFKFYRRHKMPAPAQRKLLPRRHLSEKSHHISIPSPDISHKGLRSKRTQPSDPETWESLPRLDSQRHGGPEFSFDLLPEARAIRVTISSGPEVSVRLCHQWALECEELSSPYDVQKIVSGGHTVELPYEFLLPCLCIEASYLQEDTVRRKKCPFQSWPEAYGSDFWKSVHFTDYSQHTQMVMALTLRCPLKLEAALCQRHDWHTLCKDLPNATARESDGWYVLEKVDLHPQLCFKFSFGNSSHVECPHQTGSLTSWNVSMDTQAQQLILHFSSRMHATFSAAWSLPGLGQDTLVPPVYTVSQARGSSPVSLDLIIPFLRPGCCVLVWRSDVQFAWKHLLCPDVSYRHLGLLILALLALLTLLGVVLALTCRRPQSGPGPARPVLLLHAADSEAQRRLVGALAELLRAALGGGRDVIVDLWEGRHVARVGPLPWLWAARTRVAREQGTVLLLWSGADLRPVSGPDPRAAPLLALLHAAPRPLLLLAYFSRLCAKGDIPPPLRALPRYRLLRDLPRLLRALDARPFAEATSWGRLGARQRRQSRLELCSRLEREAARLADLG

human ZcytoR21x2 [2] = target: T2, human ZcytoR21x2 (human, UniProt Q8NFR9 24-667); test: as above
T2 construct: also called hcytor21x2
T2 sequence: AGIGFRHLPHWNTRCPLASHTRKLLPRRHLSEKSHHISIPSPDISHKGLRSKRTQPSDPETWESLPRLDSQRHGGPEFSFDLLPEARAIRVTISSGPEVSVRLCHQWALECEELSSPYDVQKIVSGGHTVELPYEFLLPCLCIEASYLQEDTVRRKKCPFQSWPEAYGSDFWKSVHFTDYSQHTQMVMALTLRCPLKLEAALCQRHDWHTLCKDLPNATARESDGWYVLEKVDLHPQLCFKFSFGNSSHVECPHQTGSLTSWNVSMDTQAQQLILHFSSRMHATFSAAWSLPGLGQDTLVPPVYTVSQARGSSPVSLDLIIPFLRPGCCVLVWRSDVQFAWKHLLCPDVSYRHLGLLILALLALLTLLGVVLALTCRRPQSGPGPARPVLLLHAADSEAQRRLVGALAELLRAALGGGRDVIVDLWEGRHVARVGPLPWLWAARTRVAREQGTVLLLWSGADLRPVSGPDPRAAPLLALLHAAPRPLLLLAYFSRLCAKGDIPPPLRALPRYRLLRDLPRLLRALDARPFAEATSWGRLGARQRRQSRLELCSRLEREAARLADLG

human ZcytoR21x6 = target: T3, human ZcytoR21x6 (human, UniProt Q8NFR9 24-667); test: flow cytometry, biotinylated IL-17C (1 ug/ml) + streptavidin-PE on stably transfected BHK cells
T3 construct: also called hcytor21x6
T3 sequence: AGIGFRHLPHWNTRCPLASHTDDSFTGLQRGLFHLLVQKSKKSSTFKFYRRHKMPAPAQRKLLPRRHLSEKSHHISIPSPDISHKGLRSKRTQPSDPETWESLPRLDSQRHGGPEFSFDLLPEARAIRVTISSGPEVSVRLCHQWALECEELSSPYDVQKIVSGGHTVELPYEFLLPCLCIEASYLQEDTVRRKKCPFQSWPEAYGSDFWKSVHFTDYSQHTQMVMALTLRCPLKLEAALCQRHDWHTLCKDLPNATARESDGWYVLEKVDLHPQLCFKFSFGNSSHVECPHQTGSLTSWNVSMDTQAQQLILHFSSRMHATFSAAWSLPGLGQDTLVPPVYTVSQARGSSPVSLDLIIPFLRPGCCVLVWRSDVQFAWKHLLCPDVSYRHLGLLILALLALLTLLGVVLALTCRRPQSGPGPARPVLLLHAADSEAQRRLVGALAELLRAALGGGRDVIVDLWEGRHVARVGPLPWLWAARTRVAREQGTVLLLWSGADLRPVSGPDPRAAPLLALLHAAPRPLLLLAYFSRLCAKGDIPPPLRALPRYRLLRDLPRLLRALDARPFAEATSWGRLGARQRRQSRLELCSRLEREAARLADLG
Experimental: (§1) BHK cells stably transfected with human and mouse ZcytoR21 splice variants were plated and grown to confluency in T-75 flasks. Cells were lifted off using a non-protease reagent such as Versene (Invitrogen 15040-066), pelleted, and resuspended in a staining reagent (HBSS+1% BSA+0.1% NaAzide+10 mM HEPES) at 2×10e7 cells/ml and aliquoted to a 96-well Costar plate. IL-17C that has been labeled with biotin was independently added to cells at a concentration of 1 ug/ml. The cell/ligand mixture can be incubated for 1 hr at 4 degrees. The wells were washed 1× in staining reagent, and incubated in a secondary reagent containing staining reagent plus Streptavidin-PE (BD Pharmingen 554061) at a 1:100 ratio. The wells were incubated at 4° C. in the dark for 1 hr, followed by a 2× wash in staining media. The cells were then resuspended in a 1:1 mixture of staining media and Cytofix (BD Bioscience 554655) and incubated 10 minutes at RT. The cells were analysed by Flow Cytometry and by gating on the PE positive events for cells that bound IL-17C.

human ZcytoR21x13 = target: T4, human ZcytoR21x13 (human, UniProt Q8NFR9 24-667); test: as above
T4 construct: also called hcytor21x13
T4 sequence: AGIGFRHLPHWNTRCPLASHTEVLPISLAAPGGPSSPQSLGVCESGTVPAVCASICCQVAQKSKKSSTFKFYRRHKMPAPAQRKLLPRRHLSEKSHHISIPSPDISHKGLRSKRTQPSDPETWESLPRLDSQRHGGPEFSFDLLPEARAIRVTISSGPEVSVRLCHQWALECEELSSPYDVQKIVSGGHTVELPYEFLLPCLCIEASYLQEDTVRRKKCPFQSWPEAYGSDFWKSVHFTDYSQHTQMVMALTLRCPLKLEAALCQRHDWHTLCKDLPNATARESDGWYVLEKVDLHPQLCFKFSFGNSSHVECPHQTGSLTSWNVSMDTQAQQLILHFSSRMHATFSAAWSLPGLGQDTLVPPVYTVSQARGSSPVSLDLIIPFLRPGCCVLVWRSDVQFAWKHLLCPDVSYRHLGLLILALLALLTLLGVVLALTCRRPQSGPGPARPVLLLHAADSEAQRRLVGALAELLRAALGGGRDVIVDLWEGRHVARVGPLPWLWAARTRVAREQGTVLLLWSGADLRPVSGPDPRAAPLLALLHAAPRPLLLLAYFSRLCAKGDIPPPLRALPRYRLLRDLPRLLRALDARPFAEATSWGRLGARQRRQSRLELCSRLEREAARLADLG
Experimental: as §1

murine ZcytoR21x6 = target: T5, murine ZcytoR21x6 (mouse, UniProt Q8BH06 24-637); test: as above
T5 construct: also called mouse ZcytoR21x6; mcytor21x6
T5 sequence: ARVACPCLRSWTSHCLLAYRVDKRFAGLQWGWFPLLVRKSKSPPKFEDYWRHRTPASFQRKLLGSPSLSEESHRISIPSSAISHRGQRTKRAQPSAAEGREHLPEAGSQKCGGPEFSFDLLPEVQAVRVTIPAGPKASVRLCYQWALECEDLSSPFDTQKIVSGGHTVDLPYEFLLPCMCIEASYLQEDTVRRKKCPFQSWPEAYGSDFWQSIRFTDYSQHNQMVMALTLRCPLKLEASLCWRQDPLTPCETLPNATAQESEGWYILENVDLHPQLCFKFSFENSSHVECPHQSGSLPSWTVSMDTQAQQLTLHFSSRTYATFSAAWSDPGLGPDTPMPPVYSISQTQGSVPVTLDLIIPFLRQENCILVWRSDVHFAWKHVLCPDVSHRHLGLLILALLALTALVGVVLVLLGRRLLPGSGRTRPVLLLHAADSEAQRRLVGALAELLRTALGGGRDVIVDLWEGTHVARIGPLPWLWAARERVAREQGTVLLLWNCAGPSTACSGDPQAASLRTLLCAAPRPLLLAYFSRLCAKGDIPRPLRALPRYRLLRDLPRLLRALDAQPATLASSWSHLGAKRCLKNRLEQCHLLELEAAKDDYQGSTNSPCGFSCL
Experimental: as §1

human ZcytoR21x1 [3] = target: T1, human ZcytoR21x1; test: as above
Experimental: as §1

human ZcytoR21x2 [4] = target: T2, human ZcytoR21x2; test: as above
Experimental: as §1

binding result (human ZcytoR21x1 [1]): no binding
binding result (human ZcytoR21x2 [2]): no binding
B1: human IL-17D (biotinylated) (ligand, UniProt Q8TAD2 18-202, looked up)
chain: APRAGRRPARPRGCADRPEELLEQLYGRLAAGVLSAFHHTLQLGPREQARNASCPAGGRPADRRFRPPTNLRSVSPWAYRISYDPARYPRYLPEAYCLCRGCLTGLFGEEDVRFRSAPVYMPTVVLRRTPACAGGRSVYTEAYVTIPVGCTCVPEPEKDADSINSSIDKQGAKLLLGPNDAPAGP
modifications: biotin label (sites not given)

binding result (human ZcytoR21x6): binds
binding result (human ZcytoR21x13): binds
binding result (murine ZcytoR21x6): binds
binding result (human ZcytoR21x1 [3]): binds
binding result (human ZcytoR21x2 [4]): binds
B2: murine IL-17C (ligand)
chain: DPPSWGKPRSHRTLRCYSAEELSHGQAPPHLLTRSARWEQALPVALVASLEATGHRRQHEGPLAGTQCPVLRPEEVLEADTHERSISPWRYRIDTDENRYPQKLAVAECLCRGCINAKTGRETAALNSVQLLQSLLVLRRQPCSRDGTADPTPGSFAFHTEFIRVPVGCTCVLPRSTQ
modifications: biotin label in the binding assays (sites not given); unlabelled in the signalling assays
notes: also called mouse IL-17C; IL-17CmCH6

binding result (human ZcytoR21x1 [1]): no binding
binding result (human ZcytoR21x2 [2]): no binding
B3: human IL-17F (biotinylated) (ligand, UniProt Q96PD4 31-163, looked up)
chain: RKIPKVGHTFFQKPESCPPVPGGSMKLDIGIINENQRVSMSRNIESRSTSPWNYTVTWDPNRYPSEVVQAQCRNLGCINAQGKEDISMNSVPIQQETLVVRRKHQGCSVSFQLEKVLVTVGCTCVTPVIHHVQ
modifications: biotin label (sites not given)

binding result (human ZcytoR21x1 [1]): no binding
binding result (human ZcytoR21x2 [2]): no binding
B4: human IL-17B (biotinylated) (ligand, UniProt Q9UHF5 21-180, looked up)
chain: QPRSPKSKRKGQGRPGPLAPGPHQVPLDLVSRMKPYARMEEYERNIEEMVAQLRNSSELAQRKCEVNLQLWMSNKRSLSPWGYSINHDPSRIPVDLPEARCLCLGCVNPFTMQEDRSMVSVPVFSQVPVRRRLCPPPPRTGPCRQRAVMETIAVGCTCIF
modifications: biotin label (sites not given)
